Earlier results on two substances are cited in article PMC12635586.

One series addresses GFRAL (Homo sapiens) (UniProt Q6UXV0).

Interleukin-6, sequence (P05231 30-212): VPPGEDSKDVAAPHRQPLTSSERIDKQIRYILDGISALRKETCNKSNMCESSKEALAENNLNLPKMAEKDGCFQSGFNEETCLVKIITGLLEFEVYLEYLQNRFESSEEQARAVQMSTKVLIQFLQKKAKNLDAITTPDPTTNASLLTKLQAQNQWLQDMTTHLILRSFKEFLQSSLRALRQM
Growth differentiation factor-15, sequence (Q99988 195-308): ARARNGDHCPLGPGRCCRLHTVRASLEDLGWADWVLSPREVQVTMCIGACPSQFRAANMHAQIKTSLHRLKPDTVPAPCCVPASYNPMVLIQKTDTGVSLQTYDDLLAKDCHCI
Clazakizumab, sequence (main, as listed by the source, chain 1 of 2): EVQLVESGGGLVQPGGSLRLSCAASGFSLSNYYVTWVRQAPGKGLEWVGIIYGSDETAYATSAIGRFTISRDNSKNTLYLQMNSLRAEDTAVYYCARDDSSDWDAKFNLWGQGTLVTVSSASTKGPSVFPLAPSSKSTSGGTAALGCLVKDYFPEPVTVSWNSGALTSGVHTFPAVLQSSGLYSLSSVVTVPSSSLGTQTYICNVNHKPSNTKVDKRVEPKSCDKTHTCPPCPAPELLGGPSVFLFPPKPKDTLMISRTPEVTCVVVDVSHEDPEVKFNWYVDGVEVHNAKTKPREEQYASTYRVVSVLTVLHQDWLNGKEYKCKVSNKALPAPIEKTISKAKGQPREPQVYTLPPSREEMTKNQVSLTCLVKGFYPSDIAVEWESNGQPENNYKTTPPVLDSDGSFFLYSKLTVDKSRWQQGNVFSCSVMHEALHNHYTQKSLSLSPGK
Clazakizumab, sequence (partner, as listed by the source, chain 2 of 2): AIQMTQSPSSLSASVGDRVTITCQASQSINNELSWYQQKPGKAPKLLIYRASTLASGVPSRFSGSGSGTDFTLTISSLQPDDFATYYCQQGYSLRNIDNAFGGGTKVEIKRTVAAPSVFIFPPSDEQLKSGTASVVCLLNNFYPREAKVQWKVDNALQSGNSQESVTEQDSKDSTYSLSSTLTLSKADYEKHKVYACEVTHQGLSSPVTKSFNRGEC
GFRAL (Homo sapiens), sequence (Q6UXV0 19-351): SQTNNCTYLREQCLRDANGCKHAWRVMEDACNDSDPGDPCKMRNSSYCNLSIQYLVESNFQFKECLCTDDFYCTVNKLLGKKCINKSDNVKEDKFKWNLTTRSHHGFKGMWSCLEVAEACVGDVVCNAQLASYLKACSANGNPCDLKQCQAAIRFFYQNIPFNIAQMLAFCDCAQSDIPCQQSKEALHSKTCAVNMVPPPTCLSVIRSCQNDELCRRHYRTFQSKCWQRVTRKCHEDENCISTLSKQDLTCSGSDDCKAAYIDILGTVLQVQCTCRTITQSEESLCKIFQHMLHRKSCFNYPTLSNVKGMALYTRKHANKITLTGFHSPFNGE

By Kd is commonly meant a measure of binding affinity in units of concentration. With “Growth differentiation factor-15 (from UniProt Q99988)”, the Kd in the series with GFRAL (Homo sapiens) was 8 nM. On to Interleukin-6 (from UniProt P05231), for which the Kd with Clazakizumab was 0.004 nM.
